{"source": "paper PMC13134614", "about": "“In vitro liquid-liquid phase separation induced by respiratory syncytial virus proteins and RNA” (Science Advances, 2025)", "binders": {"B1": {"name": "5' cap 7-mer RNA (ssRNA)", "RNA": "AGCGUAC", "modifications": "5' cap (7mGppp, 2'-O-methyl on first nucleotide as generally described); cap G not counted in strand"}, "B2": {"name": "RSV phosphoprotein P residues 127-241 (domain or fragment, respiratory syncytial virus (RSV), UniProt P03421 127-241, looked up)", "chain": "TNDNITARLDRIDEKLSEILGMLHTLVVASAGPTSARDGIRDAMIGLREEMIEKIRTEALMTNDRLEAMARLRNEESEKMAKDTSDEVSLNPTSEKLNNLLEGNDSDNDLSLEDF", "notes": "Holds the tetramerization domain POD (131 to 151); source: E. coli BL21 (DE3), purified (gel filtration)"}}, "key": {"M2-1 [1]": {"biological_target": "T1, M2-1 (Respiratory syncytial virus, UniProt P04545 1-194)", "T1 sequence": "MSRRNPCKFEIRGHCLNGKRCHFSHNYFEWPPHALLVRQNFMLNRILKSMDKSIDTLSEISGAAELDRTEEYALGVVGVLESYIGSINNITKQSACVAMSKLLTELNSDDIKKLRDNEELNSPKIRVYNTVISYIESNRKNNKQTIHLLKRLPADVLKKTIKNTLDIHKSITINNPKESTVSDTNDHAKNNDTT", "assay": "EMSA (native agarose gel, Amido black protein stain); 10 uM protein, 15 uM RNA; no band shift (none or too weak to detect); EMSA: 20 mM Tris pH 8, 150 mM NaCl, 30 min room temperature, 1% native agarose in 1X Tris-glycine; PhaseScan: 20 mM Tris-HCl pH 7.4, 150 mM NaCl, no crowding agent", "details": "protein: recombinant; tags: GST fusion vector pGEX-M2-1; chain copies: 4; single strand"}, "M2-1 [2]": {"biological_target": "T1, M2-1", "assay": "EMSA (native agarose gel, Amido black protein stain); 10 uM protein, 15 uM RNA; clear band shift; EMSA: 20 mM Tris pH 8, 150 mM NaCl, 30 min room temperature, 1% native agarose in 1X Tris-glycine; PhaseScan: 20 mM Tris-HCl pH 7.4, 150 mM NaCl, no crowding agent", "details": "protein: recombinant; tags: GST fusion vector pGEX-M2-1; chain copies: 4; single strand"}, "[3]": {"biological_target": "T2, RSV nucleoprotein N fused to mCherry (N-mCherry), N rings (respiratory syncytial virus (RSV), UniProt P03418 1-391)", "T2 construct": "Nucleoprotein N of respiratory syncytial virus, 391 residues; from the plasmid pET-mCherry-N; The results call the sample of the MDS experiment 'N rings' (N-RNA oligomers holding bacterial RNA); The plasmid is named pET-mCherry-N, the methods of MDS say 'N-mCherry', so the end of mCherry is open; source: E. coli BL21 (DE3), purified (gel filtration)", "T2 sequence (looked up)": "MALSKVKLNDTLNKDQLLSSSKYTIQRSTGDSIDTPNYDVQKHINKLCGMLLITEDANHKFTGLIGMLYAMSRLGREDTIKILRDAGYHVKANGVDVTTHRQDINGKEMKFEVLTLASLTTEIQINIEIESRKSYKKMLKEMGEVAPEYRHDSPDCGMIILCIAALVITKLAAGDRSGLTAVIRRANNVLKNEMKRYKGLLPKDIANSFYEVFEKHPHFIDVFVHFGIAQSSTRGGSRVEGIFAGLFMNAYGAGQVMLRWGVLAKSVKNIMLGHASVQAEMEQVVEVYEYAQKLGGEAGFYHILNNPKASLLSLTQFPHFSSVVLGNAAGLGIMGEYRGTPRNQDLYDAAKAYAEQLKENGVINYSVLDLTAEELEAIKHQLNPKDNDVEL", "assay": "microfluidic diffusional sizing (MDS); 0.5 μM N-mCherry with increasing concentrations of unlabeled P or P domains, incubated 30 min in the dark; 150 mM NaCl, 20 mM tris pH 7.4; hydrodynamic radius of N in triplicate, Fluidity One-M", "details": "both partners purified"}}}
{"binder": "AGCGUAC (ssRNA, 5' OH)", "note": "[5' OH 7-mer RNA]", "values": [{"measurement": "binding result", "setting": "M2-1 [1]", "value": "no binding"}]}
{"binder": "B1", "values": [{"measurement": "binding result", "setting": "M2-1 [2]", "value": "binds"}]}
{"binder": "B2", "values": [{"measurement": "Kd", "setting": "[3]", "value": "2600 ± 900", "unit": "nM"}]}
